The values below come from US20070178082A1 (Ablynx, published 2007).

Experiment [1] deals with rabbit serum albumin (rabbit, UniProt P49065 25-608). The experiment is described as follows: Blot: phage displaying the nanobody on plasma (1/10) separated by SDS-PAGE and blotted on nitrocellulose, anti-M13-HRP [panel MSA 24].
Experiment [2] deals with T1, mouse serum albumin (mouse, UniProt P07724 25-608).
T1 construct: also called MSA; mouse albumin
The experiment is described as follows: BIACORE, mouse albumin immobilised on CM5 chip.

T1 sequence (P07724 25-608 limits assumed): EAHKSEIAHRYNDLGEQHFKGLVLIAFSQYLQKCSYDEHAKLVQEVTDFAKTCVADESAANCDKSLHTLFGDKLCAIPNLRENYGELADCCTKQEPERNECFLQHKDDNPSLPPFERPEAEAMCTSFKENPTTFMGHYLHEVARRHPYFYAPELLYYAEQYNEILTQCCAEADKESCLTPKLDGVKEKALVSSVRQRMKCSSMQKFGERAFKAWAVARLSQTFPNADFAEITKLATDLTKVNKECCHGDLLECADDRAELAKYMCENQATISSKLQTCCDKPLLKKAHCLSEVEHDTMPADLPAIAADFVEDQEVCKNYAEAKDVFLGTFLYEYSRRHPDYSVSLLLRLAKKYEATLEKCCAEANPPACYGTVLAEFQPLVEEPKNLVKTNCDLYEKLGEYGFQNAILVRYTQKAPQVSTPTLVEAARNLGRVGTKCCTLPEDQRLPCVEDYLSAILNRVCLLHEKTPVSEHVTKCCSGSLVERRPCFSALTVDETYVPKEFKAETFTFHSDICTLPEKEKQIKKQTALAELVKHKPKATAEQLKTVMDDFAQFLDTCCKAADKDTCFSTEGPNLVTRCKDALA
Sequence of rabbit serum albumin (P49065 25-608 limits assumed): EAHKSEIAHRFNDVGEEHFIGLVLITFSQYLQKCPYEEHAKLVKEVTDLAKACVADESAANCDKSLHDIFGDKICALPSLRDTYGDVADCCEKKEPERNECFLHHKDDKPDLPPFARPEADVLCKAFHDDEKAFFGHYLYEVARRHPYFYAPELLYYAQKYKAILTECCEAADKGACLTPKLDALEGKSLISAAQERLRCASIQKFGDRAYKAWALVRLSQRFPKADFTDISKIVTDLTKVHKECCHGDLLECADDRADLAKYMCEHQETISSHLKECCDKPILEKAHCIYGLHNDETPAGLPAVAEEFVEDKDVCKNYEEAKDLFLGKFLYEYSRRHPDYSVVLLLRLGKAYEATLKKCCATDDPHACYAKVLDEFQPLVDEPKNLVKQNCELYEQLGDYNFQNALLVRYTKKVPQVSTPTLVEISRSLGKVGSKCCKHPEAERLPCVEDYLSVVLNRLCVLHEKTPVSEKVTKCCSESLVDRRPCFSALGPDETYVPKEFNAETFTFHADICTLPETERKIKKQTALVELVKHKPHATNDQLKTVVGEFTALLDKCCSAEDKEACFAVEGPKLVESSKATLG

B1: MSA24 (VHH)
VHH: QVQLQESGGGLVQPGNSLRLSCAASGFTFRNFGMSWVRQAPGKEPEWVSSISGSGSNTIYADSVKDRFTISRDNAKSTLYLQMNSLKPEDTAVYYCTIGGSLSRSSQGTQVTVSS
notes: Llama VHH selected on mouse serum albumin
In general, Kd refers to a measure of binding affinity in units of concentration. A low value points to a tighter complex. As usually defined, the koff is a measure of how fast the partners let go of each other. High values mean a short-lived complex, low ones a long-lived complex. By kon is commonly meant the rate constant with which the complex forms. Consider B1, for which the binding result in experiment [1] is recorded as “no binding”. Moreover, in experiment [2], binding was put at a Kd of 28 nM, the koff was 0.018 s⁻¹ and the kon worked out at 640000 M⁻¹ s⁻¹.
